We go through three molecules from publication PMC9287719 (2022).

Assay [1] deals with T1, Recombinant FcγRIIa (R131) with C-terminus Biotin (human, UniProt P12318, C-terminus Biotin).
T1 chain: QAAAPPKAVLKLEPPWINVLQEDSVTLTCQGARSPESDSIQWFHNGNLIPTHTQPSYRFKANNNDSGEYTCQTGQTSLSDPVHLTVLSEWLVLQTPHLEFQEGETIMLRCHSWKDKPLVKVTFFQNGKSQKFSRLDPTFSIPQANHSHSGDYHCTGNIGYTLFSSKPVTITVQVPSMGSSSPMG

In assay [2] the target is T2, Recombinant FcγRIIa (H131) with C-terminus Biotin (human, UniProt P12318 34-217, C-terminus Biotin).
T2 chain: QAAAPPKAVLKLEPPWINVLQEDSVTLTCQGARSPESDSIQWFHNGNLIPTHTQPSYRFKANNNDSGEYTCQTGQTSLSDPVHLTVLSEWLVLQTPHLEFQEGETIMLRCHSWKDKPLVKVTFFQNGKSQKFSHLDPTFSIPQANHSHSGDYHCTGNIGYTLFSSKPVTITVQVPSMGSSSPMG

The target of assay [3] is T3, Recombinant FcγRI with C-terminus Biotin (human, UniProt P12314 16-292, C-terminus Biotin).
T3 chain: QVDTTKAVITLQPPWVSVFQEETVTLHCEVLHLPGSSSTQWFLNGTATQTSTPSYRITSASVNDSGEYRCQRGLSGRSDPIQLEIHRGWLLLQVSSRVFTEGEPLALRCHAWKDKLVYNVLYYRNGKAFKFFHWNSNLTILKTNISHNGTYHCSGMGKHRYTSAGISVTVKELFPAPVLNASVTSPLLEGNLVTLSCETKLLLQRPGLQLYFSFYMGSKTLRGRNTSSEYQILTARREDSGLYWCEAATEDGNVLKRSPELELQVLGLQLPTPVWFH

In assay [4] the target is T4, Recombinant FcγRIIIa (V158) with C-terminus Biotin (human, UniProt P08637, C-terminus Biotin).
For assay [5], the target named is T3, Recombinant FcγRI with C-terminus Biotin.
For assay [6], the target named is T1, Recombinant FcγRIIa (R131) with ….
The target of assay [7] is T4, Recombinant FcγRIIIa (V158) with …. The source holds these as a separate data set.
Assay [8] deals with T2, Recombinant FcγRIIa (H131) with ….
For assay [9], the target named is T5, Recombinant FcγRIIb with C-terminus Biotin (human, UniProt P31994 43-217, C-terminus Biotin).
T5 chain: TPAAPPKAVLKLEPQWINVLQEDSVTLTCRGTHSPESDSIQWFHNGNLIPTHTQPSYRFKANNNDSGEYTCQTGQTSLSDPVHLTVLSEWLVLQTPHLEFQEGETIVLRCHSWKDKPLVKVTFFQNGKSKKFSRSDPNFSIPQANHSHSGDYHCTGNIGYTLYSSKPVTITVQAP

Assay [10] addresses Recombinant FcγRIIIa (F158) with C-terminus Biotin (human, UniProt P08637 17-208, C-terminus Biotin).

The IC50 is the midpoint of a concentration-inhibition curve.

Read-outs that look alike come from different tables or passages of the source.

T4 sequence (P08637 17-208 F176V): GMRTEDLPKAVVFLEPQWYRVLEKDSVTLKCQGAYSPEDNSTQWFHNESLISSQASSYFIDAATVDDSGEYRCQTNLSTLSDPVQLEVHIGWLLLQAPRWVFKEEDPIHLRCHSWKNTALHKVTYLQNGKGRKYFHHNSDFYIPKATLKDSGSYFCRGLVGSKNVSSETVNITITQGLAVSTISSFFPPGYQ
Sequence of Recombinant FcγRIIIa (F158) with C-terminus Biotin (P08637 17-208): as the sequence (P08637 17-208 F176V) above, with V160F counted along it

B1: Panitumumab (antibody)
chain 1: QVQLQESGPGLVKPSETLSLTCTVSGGSVSSGDYYWTWIRQSPGKGLEWIGHIYYSGNTNYNPSLKSRLTISIDTSKTQFSLKLSSVTAADTAIYYCVRDRVTGAFDIWGQGTMVTVSS
chain 2: DIQMTQSPSSLSASVGDRVTITCQASQDISNYLNWYQQKPGKAPKLLIYDASNLETGVPSRFSGSGSGTDFTFTISSLQPEDIATYFCQHFDHLPLAFGGGTKVEIK
As for B1, the IC50 in [1] came out at 1570 nM; in [2], 137 nM.

B2: Pembrolizumab (antibody)
chain 1: QVQLVQSGVEVKKPGASVKVSCKASGYTFTNYYMYWVRQAPGQGLEWMGGINPSNGGTNFNEKFKNRVTLTTDSSTTTAYMELKSLQFDDTAVYYCARRDYRFDMGFDYWGQGTTVTVSS
chain 2: EIVLTQSPATLSLSPGERATLSCRASKGVSTSGYSYLHWYQQKPGQAPRLLIYLASYLESGVPARFSGSGSGTDFTLTISSLEPEDFAVYYCQHSRDLPLTFGGGTKVEIK
Regarding B2, the IC50 came out at 0.44 nM in assay [3] and 1960 nM in assay [4].

B3: Infliximab (antibody)
chain 1: EVKLEESGGGLVQPGGSMKLSCVASGFIFSNHWMNWVRQSPEKGLEWVAEIRSKSINSATHYAESVKGRFTISRDDSKSAVYLQMTDLRTEDTGVYYCSRNYYGSTYDYWGQGTTLTVSS
chain 2: DILLTQSPAILSVSPGERVSFSCRASQFVGSSIHWYQQRTNGSPRLLIKYASESMSGIPSRFSGSGSGTDFTLSINTVESEDIADYYCQQSHSWPFTFGSGTNLEVK
For the molecule B3, the IC50 is 0.06 nM in assay [5]; 394 nM in assay [6]; 15.5 nM in [7]; 244 nM in assay [8]; 2900 nM in [9]; 101 nM in [10].
